Measured values published in the DeepSol protein solubility set.

Test: soluble on expression in E. coli; label from the status in PepcDB or PDB records

Soluble on expression in E. coli, soluble:
MATYNGQGFIHDQLDSIRNQTLRPDYVLMRDDGSTDDTVKVVEDYIKEHRLDGWSITSNDKNLGWRLNFRQLLIDVLAYEVDYVFFSDQDDTWYHHKNKMQVDIMEERQDINLLSADIDIKKLSEEATIPNNFKFNGEETISKYPLDFSYHNYRQGWTFCLRKSFVDQVMTFYSDNLILSHDNLFAGVSGVIGSGYNLNRSVGEHKRHAENASGNILNMSSSYERHLQELYFVLSYYIILVPFLEKSSSSQLREAKAYLDFNQQRYKNAQNKDFVAILKQMMTKKRFYDSFSNRIRDLVFLLKDIKRSLEHHHHHH
MRVCVIGAGLSGLAMGHALKERGISFVCLEKAPDVGGIWRQPGAGERGPGYQSLHLNTARQLTGYADFPMPSDYPLYPRHDQVAAYLRSFAEWAGLLDHVELRTEVLSVRQDSDGSWTVVSRDADGAQSARRFEQVVVASGHHTDPALPDPLPAGADSFAGTILHSLDYRDGGDFAGRRVVVVGLGASAVDIAADLSRHAERTLLSVRRGLHIVPKQVFGMSLDEIAEAPWWNEMPFAERRRWVEQALLVARGRLSDYGLPEPDHPILSSATTLSDEILSRIRHGAVTPKPAIASFESDRVVFTDGSSEAADTVVYCTGFHMTFPFLPPGCPVAADGAVELYRRIVPADRPGLYFVGLVRPAGALTRLVEAQAQWVARLVDGAAALPGTEEMREEISTYLAGIVERYGRTRGASIQVDVSPYLAEFREPLPVLEHHHHHH
FVKSGWLLRQSTILKRWKKNWFDLWSDGHLIYYDDQTRQSIEDKVHMPVDCINIRTGHECRDIQPPDGKPRDCLLQIVCRDGKTISLCAESTDDCLAWKFTLQDSRT
LGGVFKKAGSKGLKGVRLVISDAHEGLKAAIKKILTGSAWQRCRVHFMRNVLSQVPKHYQGMVSSIIRTIFAQNDQESAREQLRHVVDELKNRFPKAMKILEEAEEEILAYMAFPREHWAQIHSTNPLERLNREIRRRTDVVCIFPNREAVIRLVGAMLMEQNDEWKVGRRYFSLESMSKITSINEFTLTPVALLHK
MSLDKMKAITFFDLDGTLLDGTSQITPEITAAVAALKDNQILPLIATGRTLCEIQPIMKASGIDSAIVMNGQFIHYEGKTIYSDEFTTEECVSLHEHVKQRGHELAFYNERRIFCTGHTGTVKQAYDYIHSAVPEIDPTGYENDAVNMMLVLSQHGDDDEYYYERFPELTFYRNGPFSIDIVRKGVSKGSGVKNLFNTLGLNGIPTYAFGDGINDLALFEACDYGIAMGNAREELKEKATFISTKNTENGIVNGLKKFDLLEGHHHHHH
NLREDGEKAAREVKLLLLGAGESGKSTFLKQMRIIHGQDFDQRAREEFRPTIYSNVIKGMRVLVDAREKLHIPWGDNKNQLHGDKLMAFDTRAPMAAQGMVETRVFLQYLPAIRALWEDSGIQNAYDRRREFQLGESVKYFLDNLDKLGVPDYIPSQQDILLARRPTKGIHETHFTFKDLHFKMFDVGGQRSERKKWFECFEGVTAIIFCVALSDYDQVLMEDRQTNRMHESMKLFDSICNNKWFTDTSIILFLNKKDLFEEKIKKSPLTICYPEYAGSNTYEEAAAYIQCQFEDLNKRKDTKEIYTHFTCATDTKNVQFVFDAVTDVIIKNNLKDCGLF
MMIEPKEKASIGIIGGSGLYDPQILTNVKEIKVYTPYGEPSDNIILGELEGRKVAFLPRHGRGHRIPPHKINYRANIWALKSLGVKWVIAVSAVGSLRLDYKPGDFVVPNQFIDMTKGRTYTFFDGPTVAHVSMADPFCEHLRSIILDSAKDLGITTHDKGTYICIEGPRFSTRAESIVWKEVFKADIIGMTLVPEVNLACEAEMCYSVIGMVTDYDVFADIPVTAEEVTKVMAENTAKVKKLLYEVIRRLPEKPDERKCSCCQALKTALVLEHHHHHHHH

Soluble on expression in E. coli, not soluble:
MGSDKIHHHHHHMDISRKIERLELFLEQDKDNLNLMLDLIYLSLDAGSIDIAENYLYRAQQQHPESSQLIYLSGLISCQRKNFEQGLITFNSLLSAGVRSASILYQAAYCNIQLGNPETALERLIHASELSPETEILYLLARTQYQLKNFELAVSTLTALADSDAKYAPAHSLLSQIYMDIEQWADAQASAAKALALDPNNVTANITIGFITLNSNQYDQAARHFSQALNVNDESCRTHLGLAIIDVFQQRYVEAEQHLLKALSLQNDLLPGINLLGWLYLLTDRFALARDVFDRGVEVDRSYAEMYGGIAIVDILEKDETAARKNVAIALRLDKMSYAGNFAKILLLQNAQRLSQAEKVWKNLISSPIDDTGKTLEQAVIEQIRAYLKVTLH
MGSDKIHHHHHHMVTRITINRGKRCVDEADRCHNRWHPDIEPAAEVDPGDIVVIETRDALDGQITANPGVDDVASADLNVVHPLTGPVYVRGAKPGDLLVVEVLDIKAEPFGFTVAIPGFGFLRDLFDKPYKIRWRIEGGYAFSEDLPNVRIPGDPFLGVMGVAPSKELLKEIKEREDRLLKRGGFVLPPTPEGAVPPREPVASEGLRTIPPRENGGNLDVRHFSPGSKIYFPVFVEGALFSVGDAHYAQGDGEVCGTAIEMGATATLRFGVISEGAKKYGIRFPIFKPSESSVRRFTHSKHVAVTGVGVIDSLNESENATLSAKHALLNLINLLEKAGYTREQAYLLASVAADLRLSQLVDVPNFTVTAFLPLDIFIEPPEVLKKLAE
MGSDKIHHHHHHMNNTRSAYEKIIKDLQGVGFSDYEAKTYIALLLTPNATAYEISKEAGIPKANCYSVLEALRKNGAVQAVSENPVKYVAVDPNRYFNQMVELTQLRCEDLKESLKNIGHLPQEDLVWSLNDAAAVGLHIEKMIGSARDTIRIKAADTTLEPHLPSLKKAARRGVKVLIILFGEDVRPFELGKNCKVYLHEGNGIRVGISHKLITVTRDYKEALVAEVGRDAYGSYTENKPIVTLADSLLRHEIYFAEIFSCFGDEIQEKFGPALVKLRESYLPADQADALKVFLETADPARLAGKATAA
MESADGEIEALCSIWDGVHVESKLEASRRYLKHKIKSLEDESTSASVLIEMTVSEGYPAVSPTVTLSNPRGIGEPEFRELQRQIQEIIEQNSDEMPIICQIFQHCSDFLTENQHQNMDCSICLICLASSPIIVTACDHFMHFACFNRYLTECLTGLRQEIQDAQKHMKEQVETNIFCPVCRAQLTDSNTIHNYRENVQLMIKNCKKNQKTLKNKKRRSSTTTEDVQKTIKRWHEEQRKLSKIYEKQKEKGGIIDIEEEKKRRQFFIETTTNEETDEAESTDIAENID
MIFRSFFTHRIASMETKRLKLIPACLERAEEAHQAVVRSQKTLEVYLPWVPHVLTLEAMIEGTEKAIANFENFEEELRYYIIEK
MGSDKIHHHHHHMKSFDEMTPKEIVQELDKYIVGQYEAKKAVAIAVRNRIRRQKLPEEWRKEVLPKNILMIGPTGVGKTEIARRLAQLSGSPFLKVEATRFTEVGYVGKNVDSMIRDLVEISVNMVKQEKIKEVERQAEELVEERILDALVPESKAMPVVTNPFINLITGGQQQQYTPEDRRRFRAKREEMREKLRKGELEDEEIEIELEETVSPFMGIFGPGMEDLGIEITNMFSGMLPKRKKKRKMKVSEARKVLLPLEAEKLIDMDKVVQEALDRAQNRGIIFIDEIDKIAGKESAVGPDVSRQGVQRDLLPIVEGTTIMTKYGPVRTDFILFIAAGAFHVSRPSDLIPELQGRFPIRVELSPLTEEDFVRILKEPENAIIKQYQALLSTEGVELVFTEDGIREMARIAYQLNQRLENIGARRLYTVAEKVLEEISFEAPDIPEKRVVVDAEYVRRRLEKIVQDEDLSAYIL
MKTTPVTPDDLQRSVIAVPPLARHADLTLNPAANQAVLRHLEAGGVRSVMYGGNANFYHVQVSEYAQLLDFLAESAGPDTWVLPSAGPDYGKLMDQAAILRTRDFPTAMLLPMSFPYTDAGLADGIRRFSDAMDRPAVVYIKSSDYLAPATVARLIGEGRIAALKYAVVREDPARDPYLDALLKEVDPRWIVSGIGERPAIVHFRQFGLRSFTSGSVCVAPRGSMRLLHLLHQGDFEAAEQVRAAYIPLEDCRDGISPIRVLHDAVTLAGVADMGPMLPLLSGLDPADRERVAPVARALLAGDRQ
